{"source": "paper doi:10.1101/2020.09.22.308338", "about": "(bioRxiv, 2020)", "molecular_target": "stabilized homotrimeric spike protein of SARS-CoV-2 (SARS-CoV-2 (Wuhan-Hu-1 sequence, strain …, UniProt P0DTC2, stabilised))", "test": "bead-based multiplex ACE2 competition assay"}
{"binder": "nanobody NM1230 (VHH) VHH: QVQLVESGGGLVRPGGSLRLSCVGSGFTFSGYAMNWYRQAPGKALELVAGISNAGDLTHYEEPMKGRVAISRANDKNTVYLQMDDLKPEDTAVYRCHAPGVRVGTGERKDVWGQGAQVTVSS", "values": [{"measurement": "binding result", "value": "binds"}]}
